Experimental data taken from patent US20100254992A1 (published 2010).
Positions count from the first letter of the chain named. Values belong to the binder of their own block, whether it stands above or below them.

How the values were obtained:
[1] = target: T1, human Eotaxin 3 (human, UniProt Q9Y258 24-94); test: BIAcore
T1 sequence (looked up): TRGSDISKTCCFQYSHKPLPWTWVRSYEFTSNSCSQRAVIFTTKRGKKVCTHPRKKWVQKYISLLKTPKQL

[2] = target: T2, human MCP-4 (human, UniProt Q99616 24-98, limits assumed); test: BIAcore
T2 construct: also called CCL13

[3] = target: T3, human MCP-3 (human, UniProt P80098 24-99); test: BIAcore
T3 construct: also called CCL7

[4] = target: T4, human Eotaxin 2 (human, UniProt O00175 27-104, limits assumed); test: BIAcore
T4 sequence (looked up): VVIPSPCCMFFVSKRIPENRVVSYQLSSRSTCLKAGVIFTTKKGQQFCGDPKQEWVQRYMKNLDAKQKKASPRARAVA

[5] = target: T5, human Eotaxin 1 (human, UniProt P51671 24-97); test: BIAcore
[6] = target: T1, human Eotaxin 3; test: Biacore, IgG capture mode
[7] = target: T2, human MCP-4; test: Biacore, IgG capture mode
[8] = target: T3, human MCP-3; test: Biacore, IgG capture mode
[9] = target: T4, human Eotaxin 2; test: Biacore, IgG capture mode
[10] = target: T6, human MCP-2 (human, UniProt P80075 24-99); test: Biacore, IgG capture mode
T6 construct: also called CCL8
T6 sequence (looked up): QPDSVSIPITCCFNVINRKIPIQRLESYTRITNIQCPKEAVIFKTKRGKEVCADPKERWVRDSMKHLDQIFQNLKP

[11] = target: T5, human Eotaxin 1; test: Biacore, IgG capture mode
[12] = target: T7, Human Monocyte Chemoattractant Protein-1 (MCP-1) (human, UniProt P13500 24-99, 125I label on the radioligand form; letters are the unlabelled wild-type protein); test: IGEN (BioVeris), MCP-1 Kd
T7 construct: also called CCL-2; CCL2
Experimental: (§1) Affinity determination in solution was basically performed as described in the literature (Friguet et al., 1985). In order to improve the sensitivity and accuracy of the SET method, it was transferred from classical ELISA to ECL based BioVeris technology (Haenel et al., 2005, accepted for publication in Analytical Biochemistry). 1 mg/ml goat-anti-human (Fab)₂ or goat-anti-mouse IgG, Fc fragment specific antibodies (Jackson Immuno Research) were labelled with BV-tag™ NHS-Ester (Bioveris Europe, Witney, Oxfordshire, UK) according to manufacturer's instructions. The experiments were carried out in polypropylene microtiter plates and PBS pH 7.4 with 0.5% BSA and 0.02% Tween 20 as assay buffer. Unlabeled antigen was diluted in 4ⁿ series: For human and cyno MCP-1 a concentration range of 10 pM to 40 nM and for cross-reactivity controls (Eotaxin and MCP-2) a concentration range of 40 pM to 160 nM was chosen. Wells without antigen were used to determine Smax values. After addition of 100 pM Fab or IgG (final concentration in 75 μL final volume), the mixture was incubated for 2 hours at RT. Subsequently a mixture of 25 μl Dynabeads (0.4 mg/ml M-280 Streptavidin, DYNAL, Hamburg), coated with 0.25 μg/ml biotinylated MCP-1 (K69) and BV-tag labeled detection antibody in a final dilution of 1:4000 for anti-human Fab or 1:2000 for anti-mouse IgG were added per well.
(§2) Solution Equilibrium Titration Using BioVeris. As an alternative method for sensitive KD determinations, the solution equilibrium titration (SET) using BioVeris technology was performed. Monovalent dissociation constants were calculated by means of appropriate fit models for Fab and IgG. This method was suitable for affinity measurement and cross-reactivity studies. All selected 16 binders were analyzed by solution equilibrium titration (SET) using BioVeris (Table 5 and Table 6) and these affinity values were regarded as the final affinity values.

[13] = target: T7, Human Monocyte Chemoattractant …; test: cell-based or functional assay
[14] = target: T8, cynomolgus monkey MCP-1 (cynomolgus monkey, UniProt P61274 24-99); test: BioVeris, Cyno MCP-1 Kd
T8 construct: also called cyno MCP-1; cyno CCL-2
Experimental: as §1, §2

[15] = target: T8, cynomolgus monkey MCP-1; test: BioVeris solution equilibrium titration, Fab, cyno MCP-1
Experimental: as §1, §2

[16] = target: T7, Human Monocyte Chemoattractant …; test: 125I-MCP-1 binding to CCR2 on THP-1 cells, radioligand competition
[17] = target: T7, Human Monocyte Chemoattractant …; test: BioVeris solution equilibrium titration, Fab, rh MCP-1
Experimental: as §1, §2

[18] = target: T8, cynomolgus monkey MCP-1; test: BioVeris solution equilibrium titration, IgG1, cyno MCP-1
Experimental: as §1, §2

[19] = target: T7, Human Monocyte Chemoattractant …; test: BioVeris solution equilibrium titration, IgG1, rh MCP-1
Experimental: as §1, §2

[20] = target: T6, human MCP-2; test: 125I-MCP-2 binding to CCR2 on Thp-1 cells, radioligand competition

T7 sequence (P13500 24-99 limits assumed): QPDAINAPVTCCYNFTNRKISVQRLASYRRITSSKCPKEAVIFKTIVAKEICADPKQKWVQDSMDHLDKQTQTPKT
T3 sequence (P80098 24-99 limits assumed): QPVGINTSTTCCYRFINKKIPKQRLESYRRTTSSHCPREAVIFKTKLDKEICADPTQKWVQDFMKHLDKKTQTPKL
T8 sequence (P61274 24-99 limits assumed): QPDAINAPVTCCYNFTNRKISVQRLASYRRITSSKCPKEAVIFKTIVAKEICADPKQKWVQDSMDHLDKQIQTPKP

- binding result [1]: no binding
- binding result [2]: no binding
- binding result [3]: no binding
- binding result [4]: no binding
- binding result [5]: no binding
B1: CNTO 888 (antibody, V domains shown)
VH: QVQLVQSGAEVKKPGSSVKVSCKASGGTFSSYGISWVRQAPGQGLEWMGGIIPIFGTANYAQKFQGRVTITADESTSTAYMELSSLRSEDTAVYYCARYDGIYGELDFWGQGTLVTVSS
VL: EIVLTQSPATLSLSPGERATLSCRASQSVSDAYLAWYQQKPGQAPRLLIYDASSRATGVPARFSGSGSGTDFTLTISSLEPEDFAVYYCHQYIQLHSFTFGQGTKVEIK
notes: Fully human IgG1 kappa

- Kd [12]: 0.34 nM
- Inhibition of Ca2+ Mobilization IC50 [13]: 5.85 nM
- Kd [18]: 0.36 nM
- Kd [14]: 0.36 nM
- binding result [6]: no binding (tested: 100 nM)
- binding result [7]: no binding (tested: 100 nM)
- binding result [8]: no binding (tested: 100 nM)
- binding result [9]: no binding (tested: 100 nM)
- Kd [19]: 0.34 nM
- IC50 [16]: 0.05 nM
B9: MOR03899 IgG1 (antibody, V domains shown)
VH: B1 VH with Q3E, G50A, I52N, I54L, F55A, T57H, A58T, N59H
VL: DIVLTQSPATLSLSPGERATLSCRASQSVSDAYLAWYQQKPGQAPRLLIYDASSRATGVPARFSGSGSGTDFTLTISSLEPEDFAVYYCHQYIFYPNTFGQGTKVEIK
notes: Human IgG1; also called MOR3899 IgG1; MOR3899k IgG

- Kd [12]: 0.81 nM
- Inhibition of Ca2+ Mobilization IC50 [13]: 17.5 nM
- Kd [14]: 0.49 nM
- Kd [15]: 0.49 nM
- IC50 [16]: 0.13 nM
- Kd [17]: 0.81 nM
B10: MOR03899 Fab (Fab, V domains shown)
VH: B1 VH with Q3E, G50A, I52N, I54L, F55A, T57H, A58T, N59H
VL: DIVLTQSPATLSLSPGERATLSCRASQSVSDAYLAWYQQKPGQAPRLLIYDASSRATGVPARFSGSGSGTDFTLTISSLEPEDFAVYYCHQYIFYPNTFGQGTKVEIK
notes: MOR03471 cross-clone (3822 × 3876); Fab with C-terminal FLAG and 6x His tags; also called MOR3899; MOR3899k

- binding result [6]: no binding (tested: 100 nM)
- binding result [7]: no binding (tested: 100 nM)
- binding result [8]: no binding (tested: 100 nM)
- binding result [9]: no binding (tested: 100 nM)
- binding result [10]: no binding (tested: 100 nM)
- binding result [11]: no binding (tested: 100 nM)
B11: MOR03885 IgG (antibody, V domains shown)
VH: B1 VH with Q3E, G50A, I52N, I54L, F55A, T57H, A58T, N59H
VL: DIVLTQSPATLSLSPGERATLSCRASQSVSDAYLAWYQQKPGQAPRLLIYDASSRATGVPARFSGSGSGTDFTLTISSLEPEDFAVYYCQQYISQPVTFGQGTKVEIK

Second part, the binder before the results:

B2: MOR03849 IgG (antibody, V domains shown)
VH: B1 VH with Q3E, G50A, I52N, I54L, F55A, T57H, A58T, N59H
VL: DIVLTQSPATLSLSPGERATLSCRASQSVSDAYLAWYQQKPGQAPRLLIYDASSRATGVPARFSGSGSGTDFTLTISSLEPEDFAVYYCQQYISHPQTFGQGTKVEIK
- binding result [6]: no binding (tested: 100 nM)
- binding result [7]: no binding (tested: 100 nM)
- binding result [8]: no binding (tested: 100 nM)
- binding result [9]: no binding (tested: 100 nM)
- binding result [10]: no binding (tested: 100 nM)
- binding result [11]: no binding (tested: 100 nM)

B3: MOR03878 Fab (Fab, V domains shown)
VH: B1 VH with Q3E, G50A, I52N, I54L, F55A, T57H, A58T, N59H
VL: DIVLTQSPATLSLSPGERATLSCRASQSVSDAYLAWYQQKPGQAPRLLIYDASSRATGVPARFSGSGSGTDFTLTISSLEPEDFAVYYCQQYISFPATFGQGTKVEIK
notes: MOR03471 cross-clone (3822 × 3794); Fab with C-terminal FLAG and 6x His tags; also called MOR3878; MOR3878k
- Kd [12]: 0.32 nM
- Inhibition of Ca2+ Mobilization IC50 [13]: 20.2 nM
- Kd [14]: 0.32 nM
- Kd [15]: 0.32 nM
- IC50 [16]: 0.11 nM
- Kd [17]: 0.32 nM

B4: MOR03878 IgG1 (antibody, V domains shown)
VH: B1 VH with Q3E, G50A, I52N, I54L, F55A, T57H, A58T, N59H
VL: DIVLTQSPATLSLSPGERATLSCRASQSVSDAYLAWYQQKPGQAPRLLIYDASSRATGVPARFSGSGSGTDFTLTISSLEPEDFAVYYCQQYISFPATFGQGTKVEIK
notes: Human IgG1; also called MOR3878 IgG1; MOR3878k IgG
- Kd [12]: 0.27 nM
- Inhibition of Ca2+ Mobilization IC50 [13]: 6.7 nM
- Kd [18]: 0.23 nM
- Kd [14]: 0.23 nM
- binding result [6]: no binding (tested: 100 nM)
- binding result [7]: no binding (tested: 100 nM)
- binding result [8]: no binding (tested: 100 nM)
- binding result [9]: no binding (tested: 100 nM)
- Kd [19]: 0.27 nM
- IC50 [16]: 0.03 nM

B5: MOR03850 Fab (Fab, V domains shown)
VH: B1 VH with Q3E, G50A, I52N, I54L, F55A, T57H, A58T, N59H
VL: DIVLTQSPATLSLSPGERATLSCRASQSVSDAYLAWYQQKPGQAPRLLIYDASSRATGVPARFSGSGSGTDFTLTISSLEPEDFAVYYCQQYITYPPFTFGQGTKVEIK
notes: MOR03471 cross-clone (3822 × 3819); Fab with C-terminal FLAG and 6x His tags; also called MOR3850; MOR3850k
- Kd [12]: 0.04 nM
- Inhibition of Ca2+ Mobilization IC50 [13]: 28.4 nM
- Kd [14]: 0.04 nM
- Kd [15]: 0.04 nM
- IC50 [16]: 0.16 nM
- Kd [17]: 0.04 nM

B6: MOR03781 IgG1 (antibody, V domains shown)
VH: B1 VH with Q3E
VL: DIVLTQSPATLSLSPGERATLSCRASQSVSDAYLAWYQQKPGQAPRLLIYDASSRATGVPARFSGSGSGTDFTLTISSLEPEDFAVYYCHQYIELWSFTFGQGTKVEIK
notes: Human IgG1; also called MOR3781 IgG1; MOR3781k IgG
- Kd [12]: 0.02 nM
- Inhibition of Ca2+ Mobilization IC50 [13]: 10.9 nM
- Kd [18]: 0.016 nM
- Kd [14]: 0.02 nM
- binding result [6]: no binding (tested: 100 nM)
- binding result [7]: no binding (tested: 100 nM)
- binding result [8]: no binding (tested: 100 nM)
- binding result [9]: no binding (tested: 100 nM)
- binding result [11]: no binding (tested: 100 nM)
- Kd [19]: 0.02 nM
- IC50 [16]: 0.02 nM

B7: MOR03850 IgG1 (antibody, V domains shown)
VH: B1 VH with Q3E, G50A, I52N, I54L, F55A, T57H, A58T, N59H
VL: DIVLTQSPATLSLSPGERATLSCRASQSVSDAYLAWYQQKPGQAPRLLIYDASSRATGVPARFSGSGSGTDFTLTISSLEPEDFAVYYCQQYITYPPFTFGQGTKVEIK
notes: Human IgG1; also called MOR3850 IgG1; MOR3850k IgG
- Kd [12]: 0.01 nM
- Inhibition of Ca2+ Mobilization IC50 [13]: 9.47 nM
- Kd [18]: 0.021 nM
- Kd [14]: 0.01 nM
- binding result [6]: no binding (tested: 100 nM)
- binding result [7]: no binding (tested: 100 nM)
- binding result [8]: no binding (tested: 100 nM)
- binding result [9]: no binding (tested: 100 nM)
- Kd [19]: 0.011 nM
- IC50 [16]: 0.05 nM

B8: MOR03781 Fab (Fab, V domains shown)
VH: B1 VH with Q3E
VL: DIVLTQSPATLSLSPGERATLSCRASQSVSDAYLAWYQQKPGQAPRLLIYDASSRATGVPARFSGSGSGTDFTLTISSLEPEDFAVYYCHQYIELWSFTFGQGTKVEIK
notes: MOR03471 derivative (L-CDR3); Fab with C-terminal FLAG and 6x His tags; also called MOR3781; MOR3781k
- Kd [12]: 0.03 nM
- Inhibition of Ca2+ Mobilization IC50 [13]: 21.8 nM
- Kd [14]: 0.01 nM
- IC50 [16]: 0.18 nM
- Kd [17]: 0.03 nM

B12: MOR03754 Fab (Fab, V domains shown)
VH: QVQLVESGGGLVQPGGSLRLSCAASGFTFRSYGMSWVRQAPGKGLEWVSSIEHKWSGYATTYAASVKGRFTISRDNSKNTLYLQMNSLRAEDTAVYYCARFEFTPWTYFDFWGQGTLVTVSS
VL: DIELTQPPSVSVAPGQTARISCSGDNLGKKYVYWYQQKPGQAPVLVIYDDDNRPSGIPERFSGSNSGNTATLTISGTQAEDEADYYCQSYTAQSSASFGGGTKLTVL
- IC50 [20]: ≥ 2000 nM
